Consider 2 molecules from PMC7003851.

The target of data set [1] is T1, IRP1 wild-type (Homo sapiens, UniProt P21399 1-889).
T1 sequence: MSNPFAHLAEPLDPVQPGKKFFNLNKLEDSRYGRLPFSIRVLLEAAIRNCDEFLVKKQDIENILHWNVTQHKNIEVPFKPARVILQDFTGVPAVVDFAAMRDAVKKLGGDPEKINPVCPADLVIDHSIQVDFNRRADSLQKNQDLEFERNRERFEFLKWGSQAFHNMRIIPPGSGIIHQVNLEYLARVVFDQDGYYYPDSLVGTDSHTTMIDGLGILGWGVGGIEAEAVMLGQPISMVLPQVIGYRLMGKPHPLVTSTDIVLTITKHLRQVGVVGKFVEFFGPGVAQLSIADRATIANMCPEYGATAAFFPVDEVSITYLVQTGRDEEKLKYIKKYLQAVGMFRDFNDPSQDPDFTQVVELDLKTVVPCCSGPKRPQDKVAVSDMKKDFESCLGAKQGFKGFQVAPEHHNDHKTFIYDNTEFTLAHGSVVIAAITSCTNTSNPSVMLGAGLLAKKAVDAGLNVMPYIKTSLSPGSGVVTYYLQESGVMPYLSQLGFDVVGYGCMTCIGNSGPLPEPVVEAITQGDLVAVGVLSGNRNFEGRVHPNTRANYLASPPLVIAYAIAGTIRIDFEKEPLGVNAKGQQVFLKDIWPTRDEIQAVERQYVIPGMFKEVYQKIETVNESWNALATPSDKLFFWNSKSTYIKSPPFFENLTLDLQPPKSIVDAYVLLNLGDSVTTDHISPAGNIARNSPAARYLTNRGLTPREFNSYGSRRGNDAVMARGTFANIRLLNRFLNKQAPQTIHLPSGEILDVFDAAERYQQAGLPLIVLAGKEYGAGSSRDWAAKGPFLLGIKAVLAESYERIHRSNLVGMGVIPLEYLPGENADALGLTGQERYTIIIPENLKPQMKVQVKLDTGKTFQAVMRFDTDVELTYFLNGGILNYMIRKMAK
Put plainly: EMSA.

The target in data set [2] is T1, IRP1 wild-type. Put plainly: EMSA. This is another data set of the same source. On the technique in general: In EMSA bound probe runs differently from free probe, usually more slowly.

For the molecule UUUUUGUUUCCUGCUUCAAAGUGCUUGGACGGAAC (structured_RNA) [IRE-ΔC], the binding signal with IRP1 wild-type [1] was ~5 fold unbound RNA fraction vs wt-IRE.

Regarding UUUUUGUUUCCUGCUUCAACAGUGCUUGGACGGAAC (structured_RNA) [wt-IRE (FTH-IRE)], the affinity with IRP1 wild-type [2], expressed as Kd, was 18 ± 5 nM.

Usually Kd stands for the concentration at which binding is half-saturated. A high value points to weaker binding.
